From US20220242932A1, “ULINASTATIN POLYPEPTIDES FOR TREATING DISEASES” (DiaMedica USA Inc., priority 2021, published 2022)

Legend:
[1] = molecular target: Neutrophil elastase (NE) (UniProt P08246); assay: cell-based or functional assay
[2] = molecular target: T1, neutrophil elastase (Homo sapiens, UniProt P08246); assay: Neutrophil Elastase Colorimetric Drug Discovery Assay (Enzo Life Sciences), in vitro inhibition of neutrophil elastase; assay type: biochemical
T1 construct: purchased Enzo Life Sciences
T1 sequence (P08246 30-267): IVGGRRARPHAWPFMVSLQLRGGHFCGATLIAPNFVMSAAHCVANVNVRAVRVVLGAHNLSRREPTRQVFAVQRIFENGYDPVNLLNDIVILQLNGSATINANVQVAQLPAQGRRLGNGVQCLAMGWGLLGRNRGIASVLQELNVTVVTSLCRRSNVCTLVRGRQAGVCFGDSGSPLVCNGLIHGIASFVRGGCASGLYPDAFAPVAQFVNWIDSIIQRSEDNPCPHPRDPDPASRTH
Method: In vitro studies were performed to test the ability of ulinastatin to inhibit neutrophil elastase (NE). The recombinant ulinastatin polypeptide (DM300) in this experiment is the UTIΔCS variant (SEQ ID NO: 2), which has an N-linked glycan at residue N45 and a non-natural O-linked glycan at residue T17 after recombinant preparation according to methods described in U.S. Provisional Application Nos. 63/108,733 and 63/021,938 (herein incorporated by reference).
Recombinant ulinastatin (DM300) was tested for inhibition of neutrophil elastase at 8 concentrations of DM300, with triplicate measurements per compound concentration. Neutrophil elastase activity was measured using the Neutrophil Elastase Colorimetric Drug Discovery Assay (Enzo Life Sciences) as per the manufacturer's protocol. 65 μl of assay buffer was placed into the required number of wells of a 96 well, clear, half area plate and equilibrated to 37° C. Inhibitor was added to a final reaction concentration at 100, 31.6, 10, 3.16, 1, 0.316, 0.1, 0.0316, or 0 μg/mL DM300 by addition of 20 μl of 5× concentration of DM300 diluted in assay buffer, followed by 10 μl of diluted neutrophil elastase. 100 μM elastatinal was also included as a control. After 15 minutes at 37° C., 5 μl of diluted substrate was added and the plate was read in SpectraMax m5 Microplate Reader equilibrated to 37° C. Linear portions of the data were selected, and the resulting data was analyzed using GraphPad Prism V.8.2.1.

Recombinant ulinastatin polypeptide (DM300), UTIΔCS variant (from UniProt P02760 206-352)
IC50 (inhibition of neutrophil elastase activity, colorimetric substrate assay) [1]: 3.15 µg/mL | IC50 (inhibition of neutrophil elastase activity, colorimetric substrate assay), molar conversion [1]: 43.8 nM | LogIC50 (best-fit value) [1]: 0.499 log10(µg/ml)

B1: DM300: recombinant ulinastatin polypeptide, UTIΔCS variant (SEQ ID NO: 2, S10A), N-linked glycan at N45 and non-natural O-linked glycan at T17 (protein, listed as Homo sapiens)
chain: AVLPQEEEGAGGGQLVTEVTKKEDSCQLGYSAGPCMGMTSRYFYNGTSMACETFQYGGCMGNGNNFVTEKECLQTCRTVAACNLPIVRGPCRAFIQLWAFDAVKGKCVLFPYGGCQGNGNKFYSEKECREYCGVPGDGDEELLRFSN
modifications: N-glycan N45, O-glycan T17
inhibitory activity in an in vitro assay of neutrophil elastase activity ([2]; FIG. 1): significant inhibitory activity | HillSlope ([2]; best-fit value, log(inhibitor) vs. response, variable slope (four parameters)): −1.004 | LogIC50 ([2]; best-fit value, log(inhibitor) vs. response, variable slope (four parameters), concentration in μg/mL): 0.4987 | IC50 ([2]; converted from 3.153 μg/ml, assuming 1 Da=1 g/mol): ~43.8 nM
